Measured values taken from patent US20100166708A1, “ANTIMICROBIAL AND ANTI-INFLAMMATORY THERAPIES AND COMPOSITIONS” (THE REGENTS OF THE UNIVERSITY OF CALIFORNIA, priority 2007, published 2010).

Key:
[1] = target: delta-haemolysin (Staphylococcus epidermidis); assay: tryptophan fluorescence, urea dissociation of peptide complexes, 5 µM peptide
[2] = target: phenol soluble modulin-delta (Staphylococcus epidermidis); assay: cell-based or functional assay
[3] = target: delta-haemolysin (Staphylococcus epidermidis); assay: tryptophan fluorescence, urea dissociation of peptide complexes, 25 µM peptide

## delta-haemolysin (peptide)
[1]
  deltaG^1(H2O): 1.43 kcal/mol
[2]
  MIC of delta-haemolysin against GAS in the presence of 2 µM PSMdelta: 4 µM
[3]
  deltaG^1(H2O): 1.57 kcal/mol
